Laboratory results taken from publication PMC7907199, “Prokaryotic Argonaute from Archaeoglobus fulgidus interacts with DNA as a homodimer” (Scientific Reports, 2020).
Values belong to the molecule of their own block, whether it stands above or below them.

Columns and labels:
[1] = molecular target: AfAgoΔ (dimerization mutant of AfAgo lacking residues 296–303) (Archaeoglobus fulgidus) (UniProt O28951)
[2] = molecular target: T1, AfAgoΔ (dimerization mutant) (Archaeoglobus fulgidus (ATCC 49558), UniProt O28951 1-427, del296-303); experiment: SEC-MALS; 5 mM MgCl2; 5 uM protein monomer, 5 uM duplex; major peak 1:1 protein:DNA; SEC-MALS of complexes: 15 mM Tris-HCl pH 8.0, 150 mM NaCl, 5 mM MgCl2, 0.5 mM DTT, 0.04% NaN3; EMSA, AFM and smFRET buffers not in the material; details: protein: recombinant; blunt; self-complementary, 2 copies of the strand
T1 sequence: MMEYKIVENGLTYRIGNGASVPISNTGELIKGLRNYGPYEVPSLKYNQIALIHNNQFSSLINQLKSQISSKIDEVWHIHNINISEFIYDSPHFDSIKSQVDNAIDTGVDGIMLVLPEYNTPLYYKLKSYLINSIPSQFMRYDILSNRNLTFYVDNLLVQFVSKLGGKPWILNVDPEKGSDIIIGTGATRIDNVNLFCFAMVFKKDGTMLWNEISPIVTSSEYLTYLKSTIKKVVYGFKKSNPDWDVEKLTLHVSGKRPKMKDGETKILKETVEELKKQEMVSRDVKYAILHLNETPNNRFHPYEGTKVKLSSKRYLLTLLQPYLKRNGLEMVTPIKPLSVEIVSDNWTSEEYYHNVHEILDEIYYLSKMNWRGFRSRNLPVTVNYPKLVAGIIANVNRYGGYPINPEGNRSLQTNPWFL

WT AfAgo = molecular target: T2, WT AfAgo (Archaeoglobus fulgidus (ATCC 49558), UniProt O28951 1-427); experiment: SEC-MALS; 5 mM MgCl2; 5 uM protein monomer, 5 uM duplex; mostly 2:2 protein:DNA; SEC-MALS of complexes: 15 mM Tris-HCl pH 8.0, 150 mM NaCl, 5 mM MgCl2, 0.5 mM DTT, 0.04% NaN3; EMSA, AFM and smFRET buffers not in the material; details: protein: recombinant; chain copies: 2; blunt; self-complementary, 2 copies of the strand
T2 sequence: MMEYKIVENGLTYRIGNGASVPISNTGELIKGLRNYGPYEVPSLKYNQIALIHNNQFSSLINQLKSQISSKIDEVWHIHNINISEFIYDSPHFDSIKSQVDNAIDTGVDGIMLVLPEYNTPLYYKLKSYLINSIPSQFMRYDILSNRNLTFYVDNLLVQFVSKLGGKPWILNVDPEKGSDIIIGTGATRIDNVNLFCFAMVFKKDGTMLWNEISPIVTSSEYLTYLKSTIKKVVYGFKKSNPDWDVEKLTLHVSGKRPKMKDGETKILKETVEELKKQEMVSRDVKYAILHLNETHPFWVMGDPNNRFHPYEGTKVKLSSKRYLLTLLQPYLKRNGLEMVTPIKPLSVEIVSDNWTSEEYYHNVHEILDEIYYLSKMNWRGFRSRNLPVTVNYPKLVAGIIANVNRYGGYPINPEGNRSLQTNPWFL

[3] = molecular target: the molecule itself; experiment: SEC-MALS; apo proteins without nucleic acids; 1.0 mg/mL (20 µM monomer), 2.0 mL injected; HiLoad 16/60 Superdex 200; 100 mM Tris–HCl pH 8.0, 1000 mM NaCl, 0.04% NaN3; dimer to monomers
[4] = molecular target: the molecule itself; experiment: cell-based or functional assay

AFM: DNA loops, % of protein–DNA complexes [1]: 26%
Molecule: AfAgoΔ (dimerization mutant of AfAgo lacking residues 296–303) (from UniProt O28951 1-427) (natural protein)

B1: MZ-1289 oligoduplex (dsDNA)
DNA 1: ATTGTACGTACAAT
DNA 2: ATTGTACGTACAAT
modifications: 5'-phosphate
binding result [2]: binds
binding result (WT AfAgo): binds

B2: WT AfAgo (prokaryotic Argonaute from Archaeoglobus fulgidus, full-length wild type) (natural protein, UniProt O28951 1-427, looked up)
chain: T2 sequence
notes: The printed theoretical Mw of the monomer in the assays (50.8 kDa) is 49.2 kDa plus the 1.63 kDa tag, so the tag was on the protein; In some assays the protein carried a 5'-phosphorylated DNA duplex (MZ-1289) or a long DNA fragment; also called apo-AfAgo; source: E. coli BL21(DE3), purified (Ni2+ HiTrap chelating, RNase A/T1 treatment, HiTrap Heparin, Superdex 200)
stoichiometry N [3]: 2
smFRET in solution: DNA looping efficiency K (ratio of looped to unlooped dual-labelled 569 bp DNA) against WT AfAgo concentration; maximum at 2 nM, lower at higher concentrations [4]: 2.5
